Patent US20130209454A1

Assays:
Experiment in all cases: cell-based or functional assay
[1] = molecular target: HIV-1 Env of strain Ce0393_C3 (HIV-1)
[2] = molecular target: HIV-1 strain X1193_c1 envelope (gp120) (HIV-1)
[3] = molecular target: HIV-1 strain THRO4156.18 envelope (gp120) (HIV-1)
[4] = molecular target: HIV-1 strain Q842.d12 envelope (gp120) (HIV-1)
[5] = molecular target: HIV-1 strain CNE20 envelope (gp120) (HIV-1)
[6] = molecular target: HIV-1 strain T250-4 envelope (gp120) (HIV-1)
[7] = molecular target: HIV-1 Env of strain 620345.c01 (HIV-1)
[8] = molecular target: HIV-1 strain T278-50 envelope (gp120) (HIV-1)
[9] = molecular target: HIV-1 Env of strain 231966.c02 (HIV-1)
[10] = molecular target: HIV-1 strain R2184.04 envelope (gp120) (HIV-1)
[11] = molecular target: HIV-1 strain CNE21 envelope (gp120) (HIV-1)
[12] = molecular target: HIV-1 strain X2131_C1_B5 envelope (gp120) (HIV-1)
[13] = molecular target: HIV-1 strain 3817.v2.c59 envelope (gp120) (HIV-1)
[14] = molecular target: HIV-1 Env of strain 6535.3 (HIV-1)
[15] = molecular target: HIV-1 Env of strain P1981_C5_3 (HIV-1)
[16] = molecular target: HIV-1 strain Ce2010_F5 envelope (gp120) (HIV-1)
[17] = molecular target: HIV-1 Env of strain 0330.v4.c3 (HIV-1)
[18] = molecular target: HIV-1 Env of strain R2184.c04 (HIV-1)
[19] = molecular target: HIV-1 Env of strain ZM135M.PL10a (HIV-1)
[20] = molecular target: HIV-1 strain 1054_07_TC4_1499 envelope (gp120) (HIV-1)
[21] = molecular target: HIV-1 Env of strain 928-28 (HIV-1)
[22] = molecular target: HIV-1 strain CAP210.2.00.E8 envelope (gp120) (HIV-1)
[23] = molecular target: HIV-1 Env of strain 231965.c01 (HIV-1)
[24] = molecular target: HIV-1 Env of strain Ce2010_F5 (HIV-1)
[25] = molecular target: HIV-1 Env of strain R1166.c01 (HIV-1)
[26] = molecular target: HIV-1 Env of strain Q23.17 (HIV-1)
[27] = molecular target: HIV-1 Env of strain TRO.11 (HIV-1)
[28] = molecular target: HIV-1 Env of strain ZM109F.PB4 (HIV-1)
[29] = molecular target: HIV-1 strain HIV-16845-2.22 envelope (gp120) (HIV-1)
[30] = molecular target: HIV-1 Env of strain Q769.d22 (HIV-1)
[31] = molecular target: HIV-1 strain CAAN5342.A2 envelope (gp120) (HIV-1)
[32] = molecular target: HIV-1 Env of strain C3347.c11 (HIV-1)
[33] = molecular target: HIV-1 strain ZM233M.PB6 envelope (gp120) (HIV-1)
[34] = molecular target: HIV-1 Env of strain 6811.v7.c18 (HIV-1)
[35] = molecular target: HIV-1 Env of strain 3817.v2.c59 (HIV-1)
[36] = molecular target: HIV-1 strain 928-28 envelope (gp120) (HIV-1)
[37] = molecular target: HIV-1 Env of strain ZM53M.PB12 (HIV-1)
[38] = molecular target: HIV-1 strain WITO4160.33 envelope (gp120) (HIV-1)
[39] = molecular target: HIV-1 strain 1006_11_C3_1601 envelope (gp120) (HIV-1)
[40] = molecular target: HIV-1 Env of strain CAAN5342.A2 (HIV-1)
[41] = molecular target: HIV-1 strain Ce2060_G9 envelope (gp120) (HIV-1)
[42] = molecular target: HIV-1 strain 6540.v4.c1 envelope (gp120) (HIV-1)
[43] = molecular target: HIV-1 strain C3347.c11 envelope (gp120) (HIV-1)
[44] = molecular target: HIV-1 Env of strain 3301.v1.c24 (HIV-1)
[45] = molecular target: HIV-1 Env of strain T251-18 (HIV-1)
[46] = molecular target: HIV-1 strain ZM109F.PB4 envelope (gp120) (HIV-1)
[47] = molecular target: HIV-1 Env of strain C1080.c03 (HIV-1)
[48] = molecular target: HIV-1 Env of strain CNE30 (HIV-1)
[49] = molecular target: HIV-1 strain Ce703010054_2A2 envelope (gp120) (HIV-1)
[50] = molecular target: HIV-1 Env of strain Ce2060_G9 (HIV-1)

B1: NIH45-46^G54F IgG (antibody, name in Kabat numbering, V domains shown)
VH: QVRLSQSGGQMKKPGESMRLSCRASGYEFLNCPINWIRLAPGRRPEWMGWLKPRFGAVNYARKFQGRVTMTRDVYSDTAFLELRSLTSDDTAVYFCTRGKYCTARDYYNWDFEHWGRGAPVTVSS
VL: EIVLTQSPATLSLSPGETAIISCRTSQSGSLAWYQQRPGQAPRLVIYSGSTRAAGIPDRFSGSRWGADYNLSISNLESGDFGVYYCQQYEFFGQGTKVQVDI
neutralization IC50 [1]: 0.04 µg/mL | neutralization IC80 [2]: 0.026 µg/mL | neutralization IC80 [3]: 3.01 µg/mL | neutralization IC80 [4]: 0.039 µg/mL | neutralization IC80 [5]: 3.91 µg/mL | neutralization IC80 [6]: > 50 µg/mL | neutralization IC50 [7]: > 50 µg/mL | neutralization IC80 [8]: > 50 µg/mL | neutralization IC50 [9]: 0.06 µg/mL | neutralization IC80 [10]: 0.054 µg/mL | neutralization IC80 [11]: 0.66 µg/mL | neutralization IC80 [12]: 0.41 µg/mL | neutralization IC80 [13]: > 50 µg/mL | neutralization IC50 [14]: 0.07 µg/mL | neutralization IC50 [15]: 0.03 µg/mL | neutralization IC80 [16]: 0.186 µg/mL | neutralization IC50 [17]: 0.04 µg/mL | neutralization IC50 [18]: 0.015 µg/mL | neutralization IC50 [19]: 0.13 µg/mL | neutralization IC80 [20]: 0.283 µg/mL | neutralization IC50 [21]: 0.11 µg/mL | neutralization IC80 [22]: > 50 µg/mL | neutralization IC50 [23]: 0.022 µg/mL | neutralization IC50 [24]: 0.046 µg/mL | neutralization IC50 [25]: 0.4 µg/mL | neutralization IC50 [26]: 0.03 µg/mL | neutralization IC50 [27]: 0.11 µg/mL | neutralization IC50 [28]: 0.022 µg/mL | neutralization IC80 [29]: 2.75 µg/mL | neutralization IC50 [30]: 0.005 µg/mL | neutralization IC80 [31]: 0.28 µg/mL | neutralization IC50 [32]: 0.015 µg/mL | neutralization IC80 [33]: 0.99 µg/mL | neutralization IC50 [34]: 0.017 µg/mL | neutralization IC50 [35]: > 50 µg/mL | neutralization IC80 [36]: 0.41 µg/mL | neutralization IC50 [37]: 0.08 µg/mL | neutralization IC80 [38]: 0.14 µg/mL | neutralization IC80 [39]: 0.024 µg/mL | neutralization IC50 [40]: 0.1 µg/mL | neutralization IC80 [41]: 0.085 µg/mL | neutralization IC80 [42]: > 50 µg/mL | neutralization IC80 [43]: 0.059 µg/mL | neutralization IC50 [44]: 0.001 µg/mL | neutralization IC50 [45]: 0.41 µg/mL | neutralization IC80 [46]: 0.17 µg/mL | neutralization IC50 [47]: 0.36 µg/mL | neutralization IC50 [48]: 0.1 µg/mL | neutralization IC80 [49]: 0.07 µg/mL | neutralization IC50 [50]: 0.022 µg/mL
